According to patent US20240116995A1 (89BIO, published 2024):

B1: 20 kDa PEG-FGF-21 P(5)TSSP mutant conjugate (ligand)
chain: MHPIPTSSPLLQFGGQVRQRYLYTDDAQQTEAHLEIREDGTVGGAADQSPESLLQLKALKPGVIQILGVKTSRFLCQRPDGALYGSLHFDPEACSFRELLLEDGYNVYQSEAHGLPLHLPGNKSPHRDPAPRGPARFLPLPGLPPALPEPPGILAPQPPDVGSSDPLSMVGPSQGRSPSYAS
modifications: GalNAc-SA-PEG-20 kDa (glycoPEG) on the introduced threonine 6
B2: 30 kDa PEG-FGF-21 P(156)TP mutant conjugate (ligand)
chain: MHPIPDSSPLLQFGGQVRQRYLYTDDAQQTEAHLEIREDGTVGGAADQSPESLLQLKALKPGVIQILGVKTSRFLCQRPDGALYGSLHFDPEACSFRELLLEDGYNVYQSEAHGLPLHLPGNKSPHRDPAPRGPARFLPLPGLPPALPEPPGILAPTPPDVGSSDPLSMVGPSQGRSPSYAS
modifications: GalNAc-SA-PEG-30 kDa (glycoPEG) on the introduced threonine 157
B3: 30 kDa PEG-FGF-21 P(5)TSSP mutant conjugate (ligand)
chain: MHPIPTSSPLLQFGGQVRQRYLYTDDAQQTEAHLEIREDGTVGGAADQSPESLLQLKALKPGVIQILGVKTSRFLCQRPDGALYGSLHFDPEACSFRELLLEDGYNVYQSEAHGLPLHLPGNKSPHRDPAPRGPARFLPLPGLPPALPEPPGILAPQPPDVGSSDPLSMVGPSQGRSPSYAS
modifications: GalNAc-SA-PEG-30 kDa (glycoPEG) on the introduced threonine 6
B4: 20 kDa PEG-FGF-21 P(156)TP mutant conjugate (ligand)
chain: MHPIPDSSPLLQFGGQVRQRYLYTDDAQQTEAHLEIREDGTVGGAADQSPESLLQLKALKPGVIQILGVKTSRFLCQRPDGALYGSLHFDPEACSFRELLLEDGYNVYQSEAHGLPLHLPGNKSPHRDPAPRGPARFLPLPGLPPALPEPPGILAPTPPDVGSSDPLSMVGPSQGRSPSYAS
modifications: GalNAc-SA-PEG-20 kDa (glycoPEG) on the introduced threonine 157
B5: 20 kDa PEG-FGF-21 P(172)TQGAS mutant conjugate (ligand)
chain: MHPIPDSSPLLQFGGQVRQRYLYTDDAQQTEAHLEIREDGTVGGAADQSPESLLQLKALKPGVIQILGVKTSRFLCQRPDGALYGSLHFDPEACSFRELLLEDGYNVYQSEAHGLPLHLPGNKSPHRDPAPRGPARFLPLPGLPPALPEPPGILAPQPPDVGSSDPLSMVGPTQGASPSYAS
modifications: GalNAc-SA-PEG-20 kDa (glycoPEG) on the introduced threonine 173
B6: 30 kDa PEG-FGF-21 P(172)TQGAS mutant conjugate (ligand)
chain: MHPIPDSSPLLQFGGQVRQRYLYTDDAQQTEAHLEIREDGTVGGAADQSPESLLQLKALKPGVIQILGVKTSRFLCQRPDGALYGSLHFDPEACSFRELLLEDGYNVYQSEAHGLPLHLPGNKSPHRDPAPRGPARFLPLPGLPPALPEPPGILAPQPPDVGSSDPLSMVGPTQGASPSYAS
modifications: GalNAc-SA-PEG-30 kDa (glycoPEG) on the introduced threonine 173

biological target: T1, human β-Klotho (human, UniProt Q86Z14 1-1044); assay: cell-based or functional assay
T1 sequence (looked up): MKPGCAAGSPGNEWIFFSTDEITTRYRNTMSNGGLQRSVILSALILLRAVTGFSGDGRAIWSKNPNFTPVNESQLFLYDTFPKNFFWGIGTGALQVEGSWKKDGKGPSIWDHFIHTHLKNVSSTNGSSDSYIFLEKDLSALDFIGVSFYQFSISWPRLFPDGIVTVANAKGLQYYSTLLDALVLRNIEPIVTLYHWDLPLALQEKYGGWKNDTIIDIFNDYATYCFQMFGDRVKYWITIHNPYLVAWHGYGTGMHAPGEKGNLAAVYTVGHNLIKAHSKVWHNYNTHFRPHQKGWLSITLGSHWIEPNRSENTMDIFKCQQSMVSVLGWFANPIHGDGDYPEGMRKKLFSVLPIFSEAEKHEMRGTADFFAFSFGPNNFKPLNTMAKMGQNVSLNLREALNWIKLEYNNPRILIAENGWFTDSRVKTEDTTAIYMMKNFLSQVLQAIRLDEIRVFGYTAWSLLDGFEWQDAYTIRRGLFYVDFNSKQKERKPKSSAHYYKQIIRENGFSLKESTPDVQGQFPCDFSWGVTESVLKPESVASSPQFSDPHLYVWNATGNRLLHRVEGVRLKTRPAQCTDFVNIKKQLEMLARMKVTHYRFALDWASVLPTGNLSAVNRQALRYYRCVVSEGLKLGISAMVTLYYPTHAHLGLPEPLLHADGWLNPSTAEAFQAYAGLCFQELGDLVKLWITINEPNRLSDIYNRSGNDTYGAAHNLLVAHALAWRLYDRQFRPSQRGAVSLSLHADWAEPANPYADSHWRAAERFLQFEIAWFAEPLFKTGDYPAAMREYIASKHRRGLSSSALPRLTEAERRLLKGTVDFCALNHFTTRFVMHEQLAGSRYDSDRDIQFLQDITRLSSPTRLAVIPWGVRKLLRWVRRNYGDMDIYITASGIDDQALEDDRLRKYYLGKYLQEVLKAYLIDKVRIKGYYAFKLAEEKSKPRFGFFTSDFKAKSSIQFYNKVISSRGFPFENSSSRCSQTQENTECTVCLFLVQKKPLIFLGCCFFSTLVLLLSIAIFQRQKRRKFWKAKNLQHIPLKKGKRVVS

First: B1
Second: B2
The “ERK phosphorylation HEK-293 cells expressing β-Klotho EC50 values” of the first is 1.6-fold higher: 293 nM for the first, 188 nM for the second.

Going from B3 to B4, the “ERK phosphorylation HEK-293 cells expressing β-Klotho EC50 values” falls from > 3000 nM to 109 nM.

Compared with B5, B6 is 2.1-fold higher in “ERK phosphorylation HEK-293 cells expressing β-Klotho EC50 values”: 86 nM for the first, 177 nM for the second.
